For the experiment, the target named is T1, rhodopsin, P15409.
T1 chain: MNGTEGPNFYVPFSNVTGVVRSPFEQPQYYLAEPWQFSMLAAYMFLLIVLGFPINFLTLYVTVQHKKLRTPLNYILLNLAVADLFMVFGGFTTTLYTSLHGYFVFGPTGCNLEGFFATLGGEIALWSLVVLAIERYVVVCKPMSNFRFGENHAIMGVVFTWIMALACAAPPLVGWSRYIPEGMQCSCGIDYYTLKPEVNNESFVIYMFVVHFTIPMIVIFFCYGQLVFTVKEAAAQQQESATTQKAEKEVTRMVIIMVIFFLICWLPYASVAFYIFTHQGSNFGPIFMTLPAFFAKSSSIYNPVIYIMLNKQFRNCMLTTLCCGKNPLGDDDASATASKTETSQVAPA
The experiment is described as follows: FRET or BRET; three cube sensitized acceptor emission FRET on single isolated rod outer segments of C57BL/6J mice co-transduced with two rAAV vectors (cerulean and citrine fusions); FRET imaging solution pH 7.4; FRET efficiency EA as mean ± SEM. The following applies: remark: other sources report otherwise.

B1: peripherin-2, N-terminally tagged with citrine, P15499 1-346 (natural protein)
chain: MALLKVKFDQKKRVKLAQGLWLMNWLSVLAGIVLFSLGLFLKIELRKRSEVMNNSESHFVPNSLIGVGVLSCVFNSLAGKICYDALDPAKYAKWKPWLKPYLAVCIFFNVILFLVALCCFLLRGSLESTLAYGLKNGMKYYRDTDTPGRCFMKKTIDMLQIEFKCCGNNGFRDWFEIQWISNRYLDFSSKEVKDRIKSNVDGRYLVDGVPFSCCNPSSPRPCIQYQLTNNSAHYSYDHQTEELNLWLRGCRAALLNYYSSLMNSMGVVTLLVWLFEVSITAGLRYLHTALESVSNPEDPECESEGWLLEKSVPETWKAFLESFKKLGKSNQVEAEGADAGPAPEAG
Turning to B1, the FRET efficiency EA amounted to 4.52.

B2: peripherin-2, C-terminally tagged with citrine, P15499 1-346 (natural protein)
chain: MALLKVKFDQKKRVKLAQGLWLMNWLSVLAGIVLFSLGLFLKIELRKRSEVMNNSESHFVPNSLIGVGVLSCVFNSLAGKICYDALDPAKYAKWKPWLKPYLAVCIFFNVILFLVALCCFLLRGSLESTLAYGLKNGMKYYRDTDTPGRCFMKKTIDMLQIEFKCCGNNGFRDWFEIQWISNRYLDFSSKEVKDRIKSNVDGRYLVDGVPFSCCNPSSPRPCIQYQLTNNSAHYSYDHQTEELNLWLRGCRAALLNYYSSLMNSMGVVTLLVWLFEVSITAGLRYLHTALESVSNPEDPECESEGWLLEKSVPETWKAFLESFKKLGKSNQVEAEGADAGPAPEAG
As for B2, the FRET efficiency EA was found to be 2.76.

These data come from PMC4963399.
